Data: publication PMC9175492

Key:
[1] = target: LgBit, an 18-kDa subunit of NanoLuc; assay: split reporter
[2] = target: Kelch domain of Kelch-like ECH-associated protein 1 (Keap1); assay: fluorescence polarisation

Row | Binder | fold induction of luminescence at 10 μM [1] | IC50 [2]
1 | VSGWRLFKKIS [HiBit, an 11-residue peptide derived from NanoLuc] | 20 fold | 
2 | GQLDPETGEFL (here or on the partner: cyclic peptide) [cyclic peptidyl inhibitor P1, Cyclo(…)] |  | 14 nM
